# Reference: publication PMC4810252
# What was measured:
# Conditions in all cases: glycan lost; control: wild type
# [1] = HBsAg ELISA of supernatant; 293T and Huh7
# [2] = sucrose gradient fractionation, stable 293T, Western blot
# [3] = confocal co-localisation, transient and stable 293T
# [4] = confocal co-localisation, stable 293T
# [5] = confocal co-localisation, transfected 293T
Protein,other: restriction of virus release [1],localisation_or_trafficking [2],localisation_or_trafficking [3],localisation_or_trafficking [4],localisation_or_trafficking [5]
BST-2/tetherin: N65/92A (protein) parent chain: MASTSYDYCRVPMEDGDKRCKLLLGIGILVLLIIVILGVPLIIFTIKANSEACRDGLRAVMECRNVTHLLQQELTEAQKGFQDVEAQAATCNHTVMALMASLDAEKAQGQKKVEELEGEITTLNHKLQDASAEVERLRRENQVLSVRIADKKYYPSSQDSSSAAAPQLLIVLLGLSALLQ,no change,changes,increases,–,–
BST-2/tetherin: N65A (protein) parent chain: MASTSYDYCRVPMEDGDKRCKLLLGIGILVLLIIVILGVPLIIFTIKANSEACRDGLRAVMECRNVTHLLQQELTEAQKGFQDVEAQAATCNHTVMALMASLDAEKAQGQKKVEELEGEITTLNHKLQDASAEVERLRRENQVLSVRIADKKYYPSSQDSSSAAAPQLLIVLLGLSALLQ,–,changes,–,no change,no change
BST-2/tetherin: N92A (protein) parent chain: MASTSYDYCRVPMEDGDKRCKLLLGIGILVLLIIVILGVPLIIFTIKANSEACRDGLRAVMECRNVTHLLQQELTEAQKGFQDVEAQAATCNHTVMALMASLDAEKAQGQKKVEELEGEITTLNHKLQDASAEVERLRRENQVLSVRIADKKYYPSSQDSSSAAAPQLLIVLLGLSALLQ,–,changes,–,–,no change
